Assay results as given in patent publication US20120178124A1, “STEROL SIDE CHAIN-CLEAVING ENZYME PROTEIN AND USE THEREOF” (MITSUBISHI CHEMICAL CORPORATION, priority 2009, published 2012).
Values joined by “and” are separate entries in the source; they are usually repeats but may differ in a detail not shown here. Equal values may be shown once.

B1: CYP204A1: P450scc from Novosphingobium aromaticivorans ATCC 700278, amino acid sequence SEQ ID NO: 23 (protein)
chain: MARAATAAGNGLPLLDGGVPLLGHLAQFFRDPVSVLKRGYRSKGRLFAMNFMGQRMNVMLGPEHNRFFFEETDKLLSIRESMPFFLKMFSPEFYSFAEMDEYLRQRSIIMPRFKAASMKQYVPVMVEESLNLVERLGEEGEFDLIPTLGPVVMDIAAHSFMGREFHEKLGHEFFELFRDFSGGMEFVLPLWLPTPKMVKSQRAKRKLHAILQSWIDKRRAAPLDPPDFFQTMIETKYPDGRPVPDEIIRHLILLLVWAGHETTAGQVSWALADLLQNPDYQKVLRGEISSLLGGSDGRDLGWEQAVAMEKMDLALRETERLHPVAYMLSRKARADIERDGYVIRKGEFVLLAPSVSHRMEETFRNPDAYDPERFNPANPDAQIESNSLIGFGGGVHRCAGVNFARMEMKVLVAILLQNFDMELMDEVRPIAGASTYWPAQPCRVRYRRRKLDGSEAGADMAALARAAGCPAHT
modifications: Novosphingobium aromaticivorans
B2: Sphingomonas subterranea NBRC16086 P450scc CYPSS204A (CYPSS), wild type, SEQ ID NO: 2 (Novosphingobium subterraneum) (protein)
chain: MASAAAGADGLPLLDGGVPLLGHLAQFFRDPVSVLKRGYRSKGRLFAMNFMGQRMNVMLGPEHNRFFFEETDKLLSIRESMPFFLKMFSPEFYSFAEMDEYLRQRAIIMPRFKAASMKQYVPVMVEESLNLVERLGEEGEFDLIPTLGPVVMDIAAHSFMGREFHEKLGHEFFELFRDFSGGMEFVLPLWLPTPKMVKSQRAKKKLHAILQSWIDKRRASPLDPPDFFQTMIETKYPDGRAVPDEIIRHLILLLVWAGHETTAGQVSWALADLLQNPGYQQVLREEVASLLGGSDGRALGWEQAVAMEKMDLALRETERLHPVAYMLSRKASADIERDGYRIRKGEFVLLAPSVSHRMEETFRNADAYDPERFNPQNPDAQIESNSLIGFGGGVHRCAGVNFARMEMKVLVAILLQNFDMELIDEVRPIAGASTYWPAQPCRVRYKRRKLDGAGGSADVAALAKAAGCPAHA

Legend:
[1] = Kinetics analysis of CYP204A1 and CYPSS; type: biochemical; conditions: for Specific activity: pH 7.5, 15° C., 60 minutes; for Km / Vmax: Lineweaver-Burk plot
Description: Moreover, the activity decrease rate when the substrate concentration is increased from 10 μM to 100 μM can also be obtained by conducting the conversion of 4-cholesten-3-one at a substrate concentration of 0.1 to 500 μM and then examining the relationship between the substrate concentration and the activity of the enzyme protein. Specifically, there is prepared 1 ml of a reaction solution, which comprises […] CYP204A1 or […] CYPSS204A, 96 μg/ml spinach-derived ferredoxin, 0.1 U/ml spinach-derived ferredoxin reductase protein, 3 U/ml glucose dehydrogenase, 60 mM glucose, 2 mM NADH and 2 mM NADPH. Tris-HCl is then added to the reaction mixture to adjust to pH 7.5. 20 μl of 4-cholesten-3-one used as a substrate, dissolved in DMSO to have a final concentration of 0.1, 0.5, 1, 2, 5, 10, 20, 50, 100 or 500 μM, is added to the reaction mixture. The reaction is initiated by addition of NADH and NADPH, and it can be carried out at 200 rpm at 15° C. for 60 minutes.
(§1) To 20 ml of the cell suspension prepared in (2) above, 680 μl of X10 Bug Buster (Novagen), 20 μl of Benzonase (Novagen), and 2 ml of 40 mg/ml lysozyme were added, and the obtained mixture was then shaken at 30° C. for 30 minutes to disintegrate the cells. Thereafter, the reaction solution was centrifuged to obtain the cell-free extract. The obtained, approximately 20 ml of cell-free extract was dialyzed against 1 L of Buffer R (20 mM KPB pH 7.4, 20% glycerol) two times, and the deposited precipitate was then removed by centrifugation. The cell-free extract obtained as a supernatant herein was used in the subsequent experiments.
Using the cell-free extract prepared in (3) above, conversion of 4-cholesten-3-one was carried out at substrate concentration of 0.1 to 500 μM, and the relationship between the substrate concentration and the enzyme protein activity was examined. The reaction solution was prepared, such that 1 ml of the buffer comprised 220 pmol CYP204A1 or 250 pmol CYPSS, 96 μg/ml spinach-derived ferredoxin, 0.1 U/ml spinach-derived ferredoxin reductase protein, 3 U/ml glucose dehydrogenase, 60 mM glucose, 2 mM NADH, and 2 mM NADPH. Tris-HCl was added to the reaction solution so as to adjust it to pH 7.5. 20 μl of 4-cholesten-3-one, which had been dissolved in DMSO to a final concentration of 0.1, 0.5, 1, 2, 5, 10, 20, 50, 100 or 500 μM, was added. The reaction was initiated by addition of NADH and NADPH, and it was carried out at 200 rpm at 15° C. for 60 minutes. Thereafter, 1.5 ml of ethyl acetate was added to the reaction solution to terminate the reaction, and extraction was carried out. Then, extraction was carried out again with 0.75 ml of ethyl acetate. The obtained ethyl acetate phase was solidified using evaporator, and the residue was then dissolved in 200 μl of methanol. Thereafter, progesterone was detected by HPLC analysis. The relationship between the substrate concentration and the enzyme protein activity, and kinetics parameters calculated by production of Lineweaver-Burk plot, is shown in Table 5.

[2] = pH stability test of cell-free extract; type: biochemical; conditions: for Relative activity: 140 hr versus 0 hr, 6° C.; for Activity 140 hr / pH at which most stable: conserved at 6° C. for 140 hours; for Activity 0 hr: immediately after mixing, reaction 15° C., 4 hours, pH 7.5; for pH at which most stable: KPB
Description: as §1
0.5 ml of the cell-free extract prepared in (3) above was mixed with 0.5 ml of 50 mM buffer having various pH values, pH was then measured, and the mixture was then conserved at 6° C. for 140 hours. […] Using the prepared cell-free extracts having various pH values, conversion of 4-cholesten-3-one was carried out. The reaction was carried out, immediately after the enzyme protein solution was mixed with buffers having various pH values and after the mixed solution was conserved for 140 hours, so as to examine the stability. The reaction solution was prepared, such that 1 ml of the buffer comprised an enzyme protein solution of CYP204A1 or CYPSS having various pH values, 64 μg/ml spinach-derived ferredoxin, 0.1 U/ml spinach-derived ferredoxin reductase protein, 3 U/ml glucose dehydrogenase, 60 mM glucose, 50 μg/ml 4-cholesten-3-one, 2 mM NADH, and 2 mM NADPH. To the reaction solution, 562 μl of 200 mM Tris-HCl was added, so as to adjust the reaction solution to pH 7.5. It was confirmed that the reaction solution maintained pH 7.5, even though enzyme protein solutions having various pH values were added thereto. The reaction was initiated by addition of NADH and NADPH, and it was carried out at 200 rpm at 15° C. for 4 hours. Thereafter, 1.5 ml of ethyl acetate was added to the reaction solution to terminate the reaction, and extraction was carried out. Then, extraction was carried out again with 0.75 ml of ethyl acetate. The obtained ethyl acetate phase was solidified using an evaporator, and the residue was then dissolved in 200 μl of methanol. Thereafter, progesterone was detected by HPLC analysis.

[3] = 4-cholesten-3-one concn. 0.1 μM
[4] = 4-cholesten-3-one concn. 0.5 μM
[5] = 4-cholesten-3-one concn. 10 μM (reference)
[6] = 4-cholesten-3-one concn. 100 μM
[7] = 4-cholesten-3-one concn. 500 μM

Molecule | Relative activity ([2]; AcB pH 6.0) | Activity 140 hr ([2]; AcB pH 6.0) | Activity 0 hr ([2]; AcB pH 6.0) | Relative activity ([2]; KPB pH 6.7) | Activity 140 hr ([2]; KPB pH 6.7) | Activity 0 hr ([2]; KPB pH 6.7) | Relative activity ([2]; KPB pH 7.2) | Activity 140 hr ([2]; KPB pH 7.2) | Activity 0 hr ([2]; KPB pH 7.2) | Relative activity ([2]; KPB pH 7.6) | Activity 140 hr ([2]; KPB pH 7.6) | Activity 0 hr ([2]; KPB pH 7.6) | pH at which most stable [2] | Relative activity ([2]; TES pH 7.5) | Activity 140 hr ([2]; TES pH 7.5) | Activity 0 hr ([2]; TES pH 7.5) | Relative activity ([2]; Tris pH 7.4) | Activity 140 hr ([2]; Tris pH 7.4) | Activity 0 hr ([2]; Tris pH 7.4) | Relative activity ([2]; Tris pH 8.1) | other results
CC(C)CCC[C@@H](C)[C@H]1CC[C@H]2[C@@H]3CCC4=CC(=O)CC[C@]4(C)[C@H]3CC[C@]12C [4-cholesten-3-one] | – | – | – | – | – | – | – | – | – | – | – | – | – | – | – | – | – | – | – | – | substrate inhibition ([1]; 4-cholesten-3-one 0.1 to 500 μM): causes substrate inhibition
B1 | 24% | 0.5 µg/mL | 2.1 µg/mL | 53% | 1 µg/mL | 1.9 µg/mL | 65% | 1.3 µg/mL | 2 µg/mL | 70% | 1.4 µg/mL | 2 µg/mL | 7.6 | 68% | 1.5 µg/mL | 2.2 µg/mL | 62% | 1.3 µg/mL | 2.1 µg/mL | 50% | Activity 140 hr ([2]; Tris pH 8.1): 1 µg/mL; Activity 0 hr ([2]; Tris pH 8.1): 2 µg/mL; Relative activity ([2]; Tris pH 8.9): 35%; Activity 140 hr ([2]; Tris pH 8.9): 0.7 µg/mL; Activity 0 hr ([2]; Tris pH 8.9): 2 µg/mL; Specific activity [1, 3]: 2.2 mmol/min/mol; Specific activity [1, 4]: 15.3 mmol/min/mol; Specific activity ([1]; 4-cholesten-3-one concn. 1 μM): 25.2 mmol/min/mol; Specific activity ([1]; 4-cholesten-3-one concn. 2 μM): 32.2 mmol/min/mol; Specific activity ([1]; 4-cholesten-3-one concn. 5 μM): 36.1 mmol/min/mol; Specific activity relative to that at 10 μM [1, 5]: 100; Specific activity ([1]; 4-cholesten-3-one concn. 10 μM): 43.1 mmol/min/mol; Specific activity ([1]; 4-cholesten-3-one concn. 20 μM): 42.7 mmol/min/mol; Specific activity ([1]; 4-cholesten-3-one concn. 50 μM): 33.5 mmol/min/mol; Specific activity relative to that at 10 μM [1, 6]: 66.6; Specific activity [1, 6]: 28.7 mmol/min/mol; Specific activity [1, 7]: 20.1 mmol/min/mol; Km ([1]; 4-cholesten-3-one): 1 µM and ~1 µM; Vmax ([1]; 4-cholesten-3-one): 47.4 mmol/min/mol
B2 | 37% | 2.7 µg/mL | 7.3 µg/mL | 61% | 4.3 µg/mL | 7.1 µg/mL | 73% | 5.3 µg/mL | 7.3 µg/mL | 85% | 5.5 µg/mL | 6.5 µg/mL | 7.6 | 71% | 5.2 µg/mL | 7.3 µg/mL | 63% | 5 µg/mL | 8 µg/mL | 65% | Activity 140 hr ([2]; Tris pH 8.1): 4.5 µg/mL; Activity 0 hr ([2]; Tris pH 8.1): 6.9 µg/mL; Relative activity ([2]; Tris pH 8.9): 51%; Activity 140 hr ([2]; Tris pH 8.9): 3.7 µg/mL; Activity 0 hr ([2]; Tris pH 8.9): 7.3 µg/mL; Vmax value compared with that of CYP204A1 ([1]; 4-cholesten-3-one): approximately 1.7 times; Specific activity [1, 3]: 1.9 mmol/min/mol; Specific activity [1, 4]: 20.0 mmol/min/mol; Specific activity ([1]; 4-cholesten-3-one concn. 1 μM): 36.5 mmol/min/mol; Specific activity ([1]; 4-cholesten-3-one concn. 2 μM): 49.5 mmol/min/mol; Specific activity ([1]; 4-cholesten-3-one concn. 5 μM): 70.4 mmol/min/mol; Specific activity relative to that at 10 μM [1, 5]: 100; Specific activity ([1]; 4-cholesten-3-one concn. 10 μM): 67.2 mmol/min/mol; Specific activity ([1]; 4-cholesten-3-one concn. 20 μM): 72.4 mmol/min/mol; Specific activity ([1]; 4-cholesten-3-one concn. 50 μM): 71.2 mmol/min/mol; Specific activity relative to that at 10 μM [1, 6]: 90.0; Specific activity [1, 6]: 60.5 mmol/min/mol; Specific activity [1, 7]: 33.6 mmol/min/mol; Km ([1]; 4-cholesten-3-one): 1.1 µM and ~1 µM; Vmax ([1]; 4-cholesten-3-one): 78.7 mmol/min/mol
